No end group written: not given here. *: point of attachment. Biotin = O=C1N[C@H]2[C@H](CS[C@H]2CCCCC(=O)*)N1
B3: biotinylated CBP-1 cofactor peptide (CREB-binding protein coactivator motif 1) (peptide)
peptide: Biotin-NLVPDAASKHKQLSELLRGGSGS
notes: coupled to Tb-streptavidin in the assay; also called CBP-1 peptide; CBP-derived peptide; source: bought: Eurogentec GmbH

How the values were obtained:
Settings in all cases: both partners purified
[1] = molecular target: T1, sGFP-PPARγ LBD (human, UniProt P37231-1 234-505); test: AlphaScreen or HTRF; unlabeled RXRα total mutant LBD titrated (up to 8 μM) against 100 nM sGFP-PPARγ LBD, 12 nM Tb-SA, 12 nM biotinylated CBP-1; no ligand (or SR11237 at ≤1 nM)
T1 construct: PPARγ isoform 2 LBD, human, UniProt P37231-1, residues 234-505; also called PPARγ coupled to sGFP; source: E. coli T7 express, coexpressed with GroEL/ES, purified (Ni IMAC, TEV, reverse IMAC, SEC); not shown: His10, N-terminal, cleaved; sGFP, N-terminal, kept
T1 sequence (looked up): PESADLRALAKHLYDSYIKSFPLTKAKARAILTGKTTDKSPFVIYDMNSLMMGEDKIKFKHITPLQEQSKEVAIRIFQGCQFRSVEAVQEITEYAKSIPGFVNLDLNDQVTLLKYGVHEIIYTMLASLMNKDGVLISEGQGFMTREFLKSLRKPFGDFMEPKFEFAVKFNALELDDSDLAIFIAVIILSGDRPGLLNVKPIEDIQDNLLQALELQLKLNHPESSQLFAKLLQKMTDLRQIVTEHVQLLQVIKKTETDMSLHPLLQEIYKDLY

[2] = molecular target: B3; test: as above
[3] = molecular target: T2, label-free PPARγ LBD (human, UniProt P37231-1 234-505); test: AlphaScreen or HTRF; heterodimer coactivator recruitment; 100 nM label-free PPARγ LBD, 2 μM sGFP-RXRα LBD total mutant, 12 nM biotinylated CBP-1 on 12 nM Tb-SA; rosiglitazone titrated (also with 50 μM SR11237); 0.1% CHAPS, 1% DMSO, RT
T2 construct: PPARγ isoform 2 LBD, human, UniProt P37231-1, residues 234-505; also called PPARγ LBD without sGFP-tag; PPARγ LBD devoid of any label; source: E. coli T7 express, coexpressed with GroEL/ES, purified (Ni IMAC, TEV, reverse IMAC, SEC); not shown: His10, N-terminal, cleaved
T2 sequence (looked up): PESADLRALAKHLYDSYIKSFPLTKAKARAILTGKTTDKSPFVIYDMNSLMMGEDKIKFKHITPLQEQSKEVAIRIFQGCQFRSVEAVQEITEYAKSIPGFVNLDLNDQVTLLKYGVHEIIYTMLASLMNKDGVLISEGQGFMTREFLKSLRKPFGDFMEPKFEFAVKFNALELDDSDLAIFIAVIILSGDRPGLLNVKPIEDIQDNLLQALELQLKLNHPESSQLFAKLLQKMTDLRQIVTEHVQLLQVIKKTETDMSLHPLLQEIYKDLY

B1: free RXRα total mutant LBD (unlabeled) (domain or fragment, human, UniProt P19793-1 223-462, looked up)
chain: TSSANEDMPVERILEAELAVEPKTETYVEANMGLNPSSPNDPVTNICQAADKQLFTLTEWAERIPHFSELPLDDQTILLRAGWNELLIASFSHRSIAVKDGILLATGLHVHRNSAHSAGVGAIFDRVLTELVSKMRDMQMDKTELGCLRAIVLFNPDSKGLSNPAEVEALREKVYASLEAYCKHKYPEQPGRFAKLLLRLPALRSIGLKCLEHLFFFKLIGDTPIDTYLMRMLEAPHQMT
notes: retinoid X receptor alpha (RXRα) LBD, human, residues 223-462 (pMal construct), five AF-2 mutations; also called unlabeled recruitment-incapable RXRα LBD (total mutant); unlabeled mutant RXRα LBD; source: E. coli T7 express, coexpressed with GroEL/ES, purified (Ni IMAC, MBP-TEV, amylose flow through, SEC); not shown: MBP, N-terminal, cleaved; His8, N-terminal, cleaved
[1]
  binding result: binds

B2: sGFP-PPARγ LBD:RXRα total mutant LBD (unlabeled) heterodimer (complex, human)
chain 1: PESADLRALAKHLYDSYIKSFPLTKAKARAILTGKTTDKSPFVIYDMNSLMMGEDKIKFKHITPLQEQSKEVAIRIFQGCQFRSVEAVQEITEYAKSIPGFVNLDLNDQVTLLKYGVHEIIYTMLASLMNKDGVLISEGQGFMTREFLKSLRKPFGDFMEPKFEFAVKFNALELDDSDLAIFIAVIILSGDRPGLLNVKPIEDIQDNLLQALELQLKLNHPESSQLFAKLLQKMTDLRQIVTEHVQLLQVIKKTETDMSLHPLLQEIYKDLY
chain 2: TSSANEDMPVERILEAELAVEPKTETYVEANMGLNPSSPNDPVTNICQAADKQLFTLTEWAERIPHFSELPLDDQTILLRAGWNELLIASFSHRSIAVKDGILLATGLHVHRNSAHSAGVGAIFDRVLTELVSKMRDMQMDKTELGCLRAIVLFNPDSKGLSNPAEVEALREKVYASLEAYCKHKYPEQPGRFAKLLLRLPALRSIGLKCLEHLFFFKLIGDTPIDTYLMRMLEAPHQMT
notes: PPARγ isoform 2 LBD, human, UniProt P37231-1, residues 234-505; RXRα LBD, human, residues 223-462, five AF-2 mutations; also called LBD:LBD heterodimer with RXRα; source: mixed from the purified E. coli proteins (100 nM sGFP-PPARγ LBD, RXRα total mutant LBD titrated); not shown: His10, N-terminal, cleaved; sGFP, N-terminal, kept; MBP, N-terminal, cleaved; His8, N-terminal, cleaved
[2]
  CBP-1 recruitment relative to that seen with rosiglitazone (%): ≤ 5%

## B3
[3]
  binding result: binds
